Values of other authors in article PMC8439649.
pKd: −log10 of the molar value.

Target: mTORC1 (Homo sapiens) (UniProt P42345)

DEPTOR PDZ (from UniProt Q8TB45)
pKd: 5.15
